These results are taken from patent US20120177664A1 (IMMUNAS PHARMA, published 2012).

In the assay the target is T1, A beta oligomer (synthetic A beta1-40, HCl form, 0.1 mg/ml in PBS, incubated at 37 degrees C for one hour) (UniProt P05067 672-711).
T1 construct: domain: A beta1-40; non-fibrous multimer of the peptide; also called A beta 1-40 oligomer
Kind of assay: SPR (Biacore 3000). The protocol:
The analysis was carried out by Surface Plasmon Resonance (SPR) using Biacore 3000 (GE Healthcare Sciences).
On the technique in general: SPR reads the build-up and loss of mass on a sensor chip optically.

B1: IR-028 antibody (antibody, V domains shown)
VH: DVQLVESGGGLVQPGGSRKLSCAASGFTFSSFGMHWVRQAPEKGLEWVAYISSGSSTIYYADTVKGRFTISRDNPKNTLFLQMTSLRSEDTAMYYCARTGTGAMDYWGQGTSVTVSS
VL: DVVMTQTPLSLPVSLGDQASISCRSSQSLVHSNGNTYLHWYLQKPGQSPKLLIYKVSNRFSGVPDRFSGSGSGTDFTLKISRVEAEDLGVYFCSQSTHVPPTFGGGTKLEIK
notes: mouse IgG2b
Molecule B1 showed a Kd of 852 nM, a koff of 0.27 s⁻¹ and a kon of 317000 M⁻¹ s⁻¹.

B2: IR-039 antibody (antibody, mouse IgG2b, V domains shown)
VH: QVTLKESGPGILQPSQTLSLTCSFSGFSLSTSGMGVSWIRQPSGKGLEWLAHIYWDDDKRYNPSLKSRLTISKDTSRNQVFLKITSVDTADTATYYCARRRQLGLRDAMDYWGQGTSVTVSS
VL: DVLMTQTPLSLPVSLGDQASISCRSSQSIVHSNGNTYLEWYLQKPGQSPKLLIYKVSNRFSGVPDRFSGSGSGTDFTLKISRVEAEDLGVYYCFQGSHVPLTFGAGTKLELK
notes: mouse IgG2b
In the case of B2, the Kd is 47.4 nM, the koff amounted to 0.00711 s⁻¹ and the kon came out at 150000 M⁻¹ s⁻¹.

B3: IR-037 antibody (antibody, mouse IgG1, V domains shown)
VH: DVQLVESGGGLVQPGGSRKLSCAASGFTFSSFGMHWVRQAPEKGLEWVAYISSGSSTIYYADTVKGRFTISRDNPKNTLFLQMTSLRSEDTAMYYCARDGTMDYWGQGTSVTVSS
VL: DAVMTQTPLSLPVSLGDQASISCRSSQSLENSNGNTYLNWYLQKPGQSPQLLIYRVSNRFSGVLDRFSGSGSGTDFTLKISRVEAEDLGVYFCLQVTHVPPTFGGGTKLEIK
notes: mouse IgG1
For the molecule B3, the affinity, expressed as Kd, was 659 nM; the koff is 0.0609 s⁻¹; the kon came to 92400 M⁻¹ s⁻¹.

B4: IR-128 antibody (antibody, V domains shown)
VH: DVQLVESGGGLVQPGGSRKLSCAASGFTFSSFGMHWVRQAPEKGLEWVAYISSGSSTIYYADTVKGRFTISRDNPKNTLFLQMTSLRSEDTAMYYCAREGHFDYWGQGTTLTVSS
VL: DVVMTQTPLSLPVSLGDQASISCRSSQSLVHSNGNTYLHWYLQKPGQSPKLLIYKVSNRFSGVPDRFSGSGSGTDFTLKISRVEAEDLGVYFCSQSTHVPPTFGGGTKLEIK
notes: mouse IgG2a
In turn, B4 yielded an equilibrium dissociation constant (Kd) of 1070 nM, a koff of 0.37 s⁻¹ and a kon of 345000 M⁻¹ s⁻¹.

B5: IR-036 antibody (antibody, mouse IgG2b, V domains shown)
VH: QVTLKESGPGILQPSQTLSLTCSFSGFSLSTSGMGVSWIRQPSGKGLEWLAHIYWDDDKRYNPSLKSRLTISKDTSRNQVFLKITSVDTADTATYYCARRANYYGYGMDAMDYWGQGTSVTVSS
VL: DVLMTQTPLSLPVSLGDQASISCRSSQSIVHSNGNTYLEWYLQKPGQSPKLLIYKVSNRFSGVPDRFSGSGSGTDFTLKISRVEAEDLGVYYCFQGSHVPLTFGAGTKLELK
notes: mouse IgG2b
For the molecule B5, binding was characterised by a dissociation constant (Kd) of 100 nM, the koff came out at 0.00876 s⁻¹ and the kon came to 87600 M⁻¹ s⁻¹.

B6: IR-062 antibody (antibody, mouse IgG2b, V domains shown)
VH: DVQLVESGGGLVQPGGSRKLSCAASGFTFSSFGMHWVRQAPEKGLEWVAYISSGSSTIYYADTVKGRFTISRDNPKNTLFLQMTSLRSEDTAMYYCARYYHYAMDYWGQGTSVTVSS
VL: DVLMTQTPLSLPVSLGDQASISCRSSQSIVHSNGNTYLEWYLQKPGQSPKLLIYKVSNRFSGVPDRFSGSGSGTDFTLKISRVEAEDLGVYYCFQGSHVPPTFGGGTKLEIK
notes: mouse IgG2b
Turning to B6, the Kd turned out to be 364 nM, the off-rate constant (koff) amounted to 0.139 s⁻¹ and the kon is 382000 M⁻¹ s⁻¹.

B7: IR-063 antibody (antibody, mouse IgG2b, V domains shown)
VH: DVQLVESGGGLVQPGGSRKLSCAASGFTFSSFGMHWVRQAPEKGLEWVAYISSGSSTIYYADTVKGRFTISRDNPKNTLFLQMTSLRSEDTAMYYCAREGDFDYWGQGTTLTVSS
VL: DVVMTQTPLSLPVSLGDQASISCRSSQSLVHSNGNTYLHWYLQKPGQSPKLLIYKVSNRFSGVPDRFSGSGSGTDFTLKISRVEAEDLGVYFCSQSTHVPLTFGAGTKLELK
notes: mouse IgG2b
B7 registered a Kd of 1270 nM, a koff of 0.145 s⁻¹ and a kon of 114000 M⁻¹ s⁻¹.

B8: IR-146 antibody (antibody, mouse IgG2a, V domains shown)
VH: DVQLVESGGGLVQPGGSRKLSCAASGFTFSSFGMHWVRQAPEKGLEWVAYISSGSSTIYYADTVKGRFTISRDNPKNTLFLQMTSLRSEDTAMYYCARGGTGAMDYWGQGTSVTVSS
VL: DVLMTQTPLSLPVSLGDQASISCRSSQSIVHSNGNTYLEWYLQKPGQSPKLLIYKVSNRFSGVPDRFSGSGSGTDFTLKISRVEAEDLGVYYCFQGSHVPPTFGGGTKLEIK
notes: mouse IgG2a
As to B8, the Kd amounted to 1060 nM, the koff came to 0.383 s⁻¹ and the kon came out at 361000 M⁻¹ s⁻¹.

B9: IR-067 antibody (antibody, mouse IgG2b, V domains shown)
VH: DVQLVESGGGLVQPGGSRKLSCAASGFTFSSFGMHWVRQAPEKGLEWVAYISSGSSTIYYADTVKGRFTISRDNPKNTLFLQMTSLRSEDTAMYYCARSGGNYLMDYWGQGTSVTVSS
VL: DVLMTQTPLSLPVSLGDQASISCRSSQSIVHSNGNTYLEWYLQKPGQSPKLLIYKVSNRFSGVPDRFSGSGSGTDFTLKISRVEAEDLGVYYCFQGSHVPLTFGAGTKLELK
notes: mouse IgG2b
As for B9, the Kd was 549 nM, the koff was determined as 0.118 s⁻¹ and the kon amounted to 215000 M⁻¹ s⁻¹.

B10: IR-124 antibody (antibody, mouse IgG2a, V domains shown)
VH: DVQLVESGGGLVQPGGSRKLSCAASGFTFSSFGMHWVRQAPEKGLEWVAYISSGSSTIYYADTVKGRFTISRDNPKNTLFLQMTSLRSEDTAMYYCAIYYYGSSYYWGQGTTLTVSS
VL: DVLMTQTPLSLPVSLGDQASISCRSSQSIVHSNGNTYLEWYLQKPGQSPKLLIYKVSNRFSGVPDRFSGSGSGTDFTLKISRVEAEDLGVYYCFQGSHVPPTFGAGTKLELK
notes: mouse IgG2a
Regarding B10, the Kd turned out to be 141 nM, the koff was found to be 0.00995 s⁻¹ and the kon came to 70400 M⁻¹ s⁻¹.

B11: IR-057 antibody (antibody, mouse IgG1, V domains shown)
VH: DVQLVESGGGLVQPGGSRKLSCAASGFTFSSFGMHWVRQAPEKGLEWVAYISSGSSTIYYADTVKGRFTISRDNPKNTLFLQMTSLRSEDTAMYYCARYGNYAMDYWGQGTSVTVSS
VL: DVLMTQTPLSLPVSLGDQASISCRSSQSIVHSNGNTYLEWYLQKPGQSPKLLIYKVSNRFSGVPDRFSGSGSGTDFTLKISRVEAEDLGVYYCFQGSHVPPTFGGGTKLEIK
notes: mouse IgG1
As for B11, binding was put at a Kd of 156 nM, the koff was 0.0579 s⁻¹ and the kon was found to be 370000 M⁻¹ s⁻¹.

B12: IR-041 antibody (antibody, mouse IgG2a, V domains shown)
VH: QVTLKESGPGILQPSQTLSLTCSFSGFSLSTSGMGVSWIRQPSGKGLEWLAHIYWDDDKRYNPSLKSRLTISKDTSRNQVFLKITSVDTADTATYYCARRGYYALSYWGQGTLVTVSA
VL: DVLMTQTPLSLPVSLGDQASISCRSSQSIVHSNGNTYLEWYLQKPGQSPKLLIYKVSNRFSGVPDRFSGSGSGTDFTLKISRVEAEDLGVYYCFQGSHVPLTFGAGTKLELK
notes: mouse IgG2a
With B12, the Kd is 1370 nM, the koff amounted to 0.0949 s⁻¹ and the kon worked out at 69400 M⁻¹ s⁻¹.

B13: IR-125 antibody (antibody, mouse IgG2b, V domains shown)
VH: DVQLVESGGGLVQPGGSRKLSCAASGFTFSSFGMHWVRQAPEKGLEWVAYISSGSSTIYYADTVKGRFTISRDNPKNTLFLQMTSLRSEDTAMYYCARAGGYSLSYAMDYWGQGTSVTVSS
VL: DVLMTQTPLSLPVSLGDQASISCRSSQSIVHSNGNTYLEWYLQKPGQSPKLLIYKVSNRFSGVPDRFSGSGSGTDFTLKISRVEAEDLGVYYCFQGSHVPPTFGGGTKLEIK
notes: mouse IgG2b
B13 registered a Kd of 78.8 nM, a koff of 0.00395 s⁻¹ and a kon of 50100 M⁻¹ s⁻¹.

B14: IR-038 antibody (antibody, mouse IgG2b, V domains shown)
VH: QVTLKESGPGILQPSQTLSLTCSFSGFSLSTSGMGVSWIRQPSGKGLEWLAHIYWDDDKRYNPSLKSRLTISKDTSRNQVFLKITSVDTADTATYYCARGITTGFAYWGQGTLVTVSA
VL: DVLMTQTPLSLPVSLGDQASISCRSSQSIVHSNGNTYLEWYLQKPGQSPKLLIYKVSNRFSGVPDRFSGSGSGTDFTLKISRVEAEDLGVYYCFQGSHVPLTFGAGTKLELK
notes: mouse IgG2b
B14 had a Kd of 84.3 nM, a koff of 0.00752 s⁻¹ and a kon of 89200 M⁻¹ s⁻¹.

B15: IR-127 antibody (antibody, mouse IgG2a, V domains shown)
VH: DVQLVESGGGLVQPGGSRKLSCAASGFTFSSFGMHWVRQAPEKGLEWVAYISSGSSTIYYADTVKGRFTISRDNPKNTLFLQMTSLRSEDTAMYYCARKGTYYRYDAFDYWGQGTTLTVSS
VL: DVLMTQTPLSLPVSLGDQASISCRSSQSIVHSNGNTYLEWYLQKPGQSPKLLIYKVSNRFSGVPDRFSGSGSGTDFTLKISRVEAEDLGVYYCFQGSHVPPTFGGGTKLEIK
notes: mouse IgG2a
Regarding B15, binding was characterised by a dissociation constant (Kd) of 1020 nM, the koff was determined as 0.261 s⁻¹ and the kon was 256000 M⁻¹ s⁻¹.

B16: IR-077 antibody (antibody, mouse IgG2a, V domains shown)
VH: DVQLVESGGGLVQPGGSRKLSCAASGFTFSSFGMHWVRQAPEKGLEWVAYISSGSSTIYYADTVKGRFTISRDNPKNTLFLQMTSLRSEDTAMYYCARSGYRYSYYAMDYWGQGTSVTVSS
VL: DVLMTQTPLSLPVSLGDQASISCRSSQSIVHSNGNTYLEWYLQKPGQSPKLLIYKVSNRFSGVPDRFSGSGSGTDFTLKISRVEAEDLGVYYCFQGSHVPLTFGAGTKLELK
notes: mouse IgG2a
The molecule B16 displayed a Kd of 550 nM, a koff of 0.153 s⁻¹ and a kon of 278000 M⁻¹ s⁻¹.

B17: IR-121 antibody (antibody, mouse IgG2b, V domains shown)
VH: DVQLVESGGGLVQPGGSRKLSCAASGFTFSSFGMHWVRQAPEKGLEWVAYISSGSSTIYYADTVKGRFTISRDNPKNTLFLQMTSLRSEDTAMYYCATYGIYAMDYWGQGTSVTVSS
VL: DVLMTQTPLSLPVSLGDQASISCRSSQSIVHSNGNTYLEWYLQKPGQSPKLLIYKVSNRFSGVPDRFSGSGSGTDFTLKISRVEAEDLGVYYCFQGSHVPPTFGGGTKLEIK
notes: mouse IgG2b
As for B17, the affinity, expressed as Kd, was 84.2 nM; the koff stood at 0.00831 s⁻¹; the kon is 98700 M⁻¹ s⁻¹.

B18: IR-095 antibody (antibody, mouse IgG2b, V domains shown)
VH: QVTLKESGPGILQPSQTLSLTCSFSGFSLSTSGMGVSWIRQPSGKGLEWLAHIYWDDDKRYNPSLKSRLTISKDTSRNQVFLKITSVDTADTATYYCARRAPRLYYGYDAMDYWGQGTSVTVSS
VL: DVLMTQTPLSLPVSLGDQASISCRSSQSIVHSNGNTYLEWYLQKPGQSPKLLIYKVSNRFSGVPDRFSGSGSGTDFTLKISRVEAEDLGVYYCFQGSHVPLTFGAGTKLELK
notes: mouse IgG2b
Molecule B18 returned a Kd of 35 nM, an off-rate constant (koff) of 0.00331 s⁻¹ and a kon of 94600 M⁻¹ s⁻¹.

B19: IR-060 antibody (antibody, mouse IgG2a, V domains shown)
VH: DVQLVESGGGLVQPGGSRKLSCAASGFTFSSFGMHWVRQAPEKGLEWVAYISSGSSTIYYADTVKGRFTISRDNPKNTLFLQMTSLRSEDTAMYYCARGGNYLRYYAMDYWGQGTSVTVSS
VL: DVLMTQTPLSLPVSLGDQASISCRSSQSIVHSNGNTYLEWYLQKPGQSPKLLIYKVSNRFSGVPDRFSGSGSGTDFTLKISRVEAEDLGVYYCFQGSHVPLTFGAGTKLELK
notes: mouse IgG2a
The molecule B19 displayed a Kd of 2610 nM, a koff of 0.2 s⁻¹ and an on-rate (kon) of 76700 M⁻¹ s⁻¹.

As a reminder, the Kd is the equilibrium constant for the complex coming apart. A low value points to tighter binding. The koff is a measure of how fast the partners let go of each other. As a reminder, the kon is the rate constant with which the complex forms. Read a high kon as fast association.
